Test results taken from patent US8409825B2, “Method for high-level secretory production of protein” (National Institute of Advanced Industrial Science and …, priority 2007, dated 2013).
Where “and” joins values, the source holds several entries; their conditions need not be identical. Identical values can stand only once.

Key:
Type in all cases: biochemical
[1] = test system: M. lysodeikticus; experiment: Bacteriolytic activity of secreted human lysozyme; settings: Table 3; for Bacteriolytic activity: culture supernatant, clones 1 to 3, 10 minutes at room temperature, absorbance at 450 nm; for Specific activity: per total amount of protein in culture supernatant, clones 1 to 3
Text: The expression vector for the aMF secretory signal-fused hLyz gene, onaP21808, was introduced into the ona01206 strain into which no chaperone combination was introduced, a strain that constitutively expresses a combination of O. minuta-derived chaperone genes; i.e., OmPDI1, OmERO1, and OmKar2, (i.e., the ona44607 strain), and a strain that constitutively expresses a combination of human-derived chaperone genes; i.e., synthetic hPDI, synthetic hERO1-Lβ, and synthetic hGRP78, (i.e., the ona68908 strain). Three clones were arbitrarily selected from the resulting colonies and cultured.
Also, bacteriolytic activity was assayed in the following manner. Bacteria of M. lysodeikticus was used as a substrate, and it was suspended in 50 mM phosphate buffer to prepare a substrate solution with a concentration of 0.16 mg/ml. To 240 μl of this substrate solution, 10 μl of a culture supernatant (the secreted human lysozyme) was added, and the mixture was incubated at room temperature for 10 minutes. Thereafter, the absorbance at 450 nm was assayed. […] Thus, a unit of lysozyme activity was defined as the amount of an enzyme that is necessary for the absorbance at 450 nm to be lowered by 0.001 per minute. Also, the total amount of proteins in the culture supernatant was assayed using the DC protein assay kit II (Bio-Rad, 500-0112JA) using bovine serum albumin as the standard.

[2] = target: T1, human alpha-2,3-sialic acid transferase (ST3GalI) (Homo sapiens, UniProt Q11201); experiment: Sialic acid transferase (ST3GalI) enzyme activity assay of crude enzyme solution, HPLC, core 1-pNP substrate; settings: for Specific activity: Table 1, culture supernatant equivalent to 10 μU, EndoHf treated, Western blot signal intensity; for Activity: Table 2, culture supernatant, assayed with the elapse of time
T1 construct: The catalyst domain of the ST3GalI gene was first amplified via PCR; His6 (N); made in house; host or cells: Ogataea minuta TK10-1-2 derived strains (YT-2 to YT-7), with or without co-expressed O. minuta chaperones; culture supernatant used as crude enzyme
T1 sequence (Q11201 35-340 limits assumed): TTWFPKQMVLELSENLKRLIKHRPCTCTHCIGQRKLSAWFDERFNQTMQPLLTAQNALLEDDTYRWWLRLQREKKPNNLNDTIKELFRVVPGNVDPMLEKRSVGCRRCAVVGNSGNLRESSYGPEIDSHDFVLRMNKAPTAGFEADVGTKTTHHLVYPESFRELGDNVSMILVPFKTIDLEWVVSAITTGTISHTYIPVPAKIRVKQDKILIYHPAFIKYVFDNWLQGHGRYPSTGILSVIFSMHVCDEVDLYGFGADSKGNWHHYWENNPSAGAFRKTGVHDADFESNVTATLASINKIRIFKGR
Experimental: The YT-2 strain and the YT-3 strain were inoculated in 5 ml of YPAD+KCl medium (2% polypeptone, 1% yeast extract, 2% glucose, adenine (40 mg/l), 0.3 M potassium chloride), and preculture was carried out at 30° C. overnight. Subsequently, 1 ml of a preculture solution was inoculated in 150 ml of YPAD+KCl medium, and culture was carried out at 30° C. for 48 hours. The strains were recovered, resuspended in 100 ml of BMMY+2% casamino acid medium (1% yeast extract, 2% polypeptone, 1.34% Yeast Nitrogen Base without amino acids (Difco), 0.1 M KPi (pH 6.0), 2% casamino acid, 1% methanol), and cultured at 20° C. for 96 hours. Methanol was added to a concentration of 0.5% every 12 hours. After the completion of culture, the culture product was subjected to centrifugation to remove yeast cells, and the resulting solution was designated as a crude enzyme solution.
Enzyme activity was assayed in the following manner. A crude enzyme solution (2 μl) was added to 18 μl of a reaction solution (0.1 M Tris-HCl (pH 7.5), 1 mM MnCl2, 5 mM CMP-NeuAc, 50 μM core 1-pNP), and the reaction was initiated. After the reaction was carried out at 37° C. for 30 minutes, the reaction was terminated via boiling, and HPLC analysis was carried out. A Cosmosil 5C18-ARII column (4.6×250 mm, Nacalai Tesque, Inc.) was used, and a mixture of 0.2 M triethylamine-acetic acid (pH 7.0, solution A) and acetonitrile (solution B) (solution A:solution B=9:1) was used as a mobile phase. The column was equilibrated, the sample was injected therein, and elution was carried out 20 minutes thereafter. Detection was carried out using a UV detector (detection wavelength: 300 nm). A core1-pNP substrate was eluted 14.5 minutes later, and a reaction product, sialylcore1-pNP, was eluted 17 minutes later. The reaction product was quantified based on the peak area, and the result was designated as activity (U). The unit “1 U” was defined as the amount of an enzyme that is necessary to produce 1 μmol of the reaction product per minute.
Western blot analysis was then carried out. The culture supernatants in amounts equivalent to “10 μU” of the YT-2 strain and the YT-3 strain were subjected to treatment with EndoHf (NEB, P0703S) in accordance with the protocol, applied, and then subjected to SDS-PAGE. After electrophoresis, the product was transferred to a PVDF membrane, and Western blotting was carried out in accordance with a conventional technique. A mouse anti-FLAG M2 antibody (Sigma, F1804) was used as a primary antibody and an anti-mouse IgG antibody-alkaline phosphatase composite was used as a secondary antibody. Detection was carried out using CDP-Star and an image analyzer, LAS1000 (Fujifilm Corporation). Further, signals were quantified using Image Gauge (Fujifilm Corporation).
The expression vector for various chaperone gene combinations derived from O. minuta prepared in Example 4 was introduced into the YT-1 strain of Example 17. In the same manner as in Example 16, plasmids were cleaved with NotI to transform the YT-1 strain. After transformation, the resultant was applied on SD-Ura medium (2% glucose, 0.17% Yeast Nitrogen Base without amino acids (Difco), nucleic acid bases except for uracil, and amino acid mixture (20 to 400 mg/l)) and culture was carried out at 30° C. for 2 days. Whether or not the expression vector was incorporated into a chromosome was confirmed via colony PCR described in Example 5, an expressed strain having a coexpression vector (onaP09407) carrying two copies of the OmPDI1 expression cassette was designated as the YT-4 strain, an expressed strain having a coexpression vector (onaP09707) for OmPDI1 and OmKar2 was designated as the YT-5 strain, an expressed strain having a coexpression vector (onaP09507) for OmPDI1 and OmERO1 was designated as the YT-6 strain, and an expressed strain having a coexpression vector (onaP09607) for OmPDI1 and OmHSP104 was designated as the YT-7 strain. […]

[3] = target: T1, human alpha-2,3-sialic acid transferase (ST3GalI); experiment: as above; settings: Table 2, 30 μl culture supernatant, Western blot signal intensity, with the elapse of time

Q: “Ona01206: secreted human lysozyme sample from strain into which no chaperone combination was introduced” was tested. Which Bacteriolytic activity [1] did it give?
A: 23.0 unit/ml and 22.3 unit/ml and 22.0 unit/ml

Q: And the Specific activity [1]?
A: 0.45 unit/mg and 0.42 unit/mg and 0.43 unit/mg

Q: What does the source list for “Ona44607: secreted human lysozyme sample from strain constitutively expressing OmPDI1, OmERO1, and OmKar2”?
A: Bacteriolytic activity [1]: 33.3 unit/ml and 34.0 unit/ml; Specific activity [1]: 0.67 unit/mg and 0.65 unit/mg

Q: What does the source list for “Ona68908: secreted human lysozyme sample from strain expressing synthetic hPDI, synthetic hERO1-Lβ, and synthetic hGRP78”?
A: Bacteriolytic activity [1]: 36.0 unit/ml and 29.3 unit/ml and 33.3 unit/ml; Specific activity [1]: 0.68 unit/mg and 0.61 unit/mg and 0.65 unit/mg

B1: YT-3: ST3GalI crude enzyme solution from O. minuta strain into which OmPDI1 (onaP03606) had been introduced (protein, UniProt Q11201 1-340, looked up)
CMP-N-acetylneuraminate-beta-g …: MVTLRKRTLKVLTFLVLFIFLTSFFLNYSHTMVATTWFPKQMVLELSENLKRLIKHRPCTCTHCIGQRKLSAWFDERFNQTMQPLLTAQNALLEDDTYRWWLRLQREKKPNNLNDTIKELFRVVPGNVDPMLEKRSVGCRRCAVVGNSGNLRESSYGPEIDSHDFVLRMNKAPTAGFEADVGTKTTHHLVYPESFRELGDNVSMILVPFKTIDLEWVVSAITTGTISHTYIPVPAKIRVKQDKILIYHPAFIKYVFDNWLQGHGRYPSTGILSVIFSMHVCDEVDLYGFGADSKGNWHHYWENNPSAGAFRKTGVHDADFESNVTATLASINKIRIFKGR
Q: How did the “difference in the expression levels (enzyme activity) compared with YT-2” value ([2]; 96 hours later, FIG. 15) turn out when B1 was run?
A: approximately 3.4 times

Q: What about the Specific activity [2] of the same molecule?
A: 3.36 pU/AU

Q: What about the “elevation of the specific activity by introduction of OmPDI1” value ([2]; YT-3 versus YT-2) of the same molecule?
A: approximately 1.6 times

B2: YT-2: ST3GalI crude enzyme solution from O. minuta strain with control plasmid pOMexGP1U, no OmPDI1 (protein, UniProt Q11201 1-340, looked up)
CMP-N-acetylneuraminate-beta-g …: MVTLRKRTLKVLTFLVLFIFLTSFFLNYSHTMVATTWFPKQMVLELSENLKRLIKHRPCTCTHCIGQRKLSAWFDERFNQTMQPLLTAQNALLEDDTYRWWLRLQREKKPNNLNDTIKELFRVVPGNVDPMLEKRSVGCRRCAVVGNSGNLRESSYGPEIDSHDFVLRMNKAPTAGFEADVGTKTTHHLVYPESFRELGDNVSMILVPFKTIDLEWVVSAITTGTISHTYIPVPAKIRVKQDKILIYHPAFIKYVFDNWLQGHGRYPSTGILSVIFSMHVCDEVDLYGFGADSKGNWHHYWENNPSAGAFRKTGVHDADFESNVTATLASINKIRIFKGR
Q: For B2, which Specific activity [2] is on record?
A: 2.13 pU/AU

B3: YT-7: ST3GalI culture supernatant from strain coexpressing OmPDI1 and OmHSP104 (protein, UniProt Q11201 1-340, looked up)
CMP-N-acetylneuraminate-beta-g …: MVTLRKRTLKVLTFLVLFIFLTSFFLNYSHTMVATTWFPKQMVLELSENLKRLIKHRPCTCTHCIGQRKLSAWFDERFNQTMQPLLTAQNALLEDDTYRWWLRLQREKKPNNLNDTIKELFRVVPGNVDPMLEKRSVGCRRCAVVGNSGNLRESSYGPEIDSHDFVLRMNKAPTAGFEADVGTKTTHHLVYPESFRELGDNVSMILVPFKTIDLEWVVSAITTGTISHTYIPVPAKIRVKQDKILIYHPAFIKYVFDNWLQGHGRYPSTGILSVIFSMHVCDEVDLYGFGADSKGNWHHYWENNPSAGAFRKTGVHDADFESNVTATLASINKIRIFKGR
Q: How did the Activity ([2]; listed as YT-7-1) turn out when B3 was run?
A: 1.28 mU/ml

Q: What about the Activity ([2]; listed as YT-7-2) of the same molecule?
A: 2.98 mU/ml

Q: What about the Activity ([2]; listed as YT-7-3) of the same molecule?
A: 3.45 mU/ml

Q: What about the Activity ([2]; listed as YT-7-4) of the same molecule?
A: 3.65 mU/ml

Q: What about the Specific activity ([3]; listed as YT-7-1) of the same molecule?
A: 11.4 pU/AU

Q: What about the Specific activity ([3]; listed as YT-7-2) of the same molecule?
A: 27.9 pU/AU

Q: And the Specific activity ([3]; listed as YT-7-3)?
A: 42.5 pU/AU

Q: What about the Specific activity ([3]; listed as YT-7-4) of the same molecule?
A: 57.3 pU/AU

B4: YT-5: ST3GalI culture supernatant from strain coexpressing OmPDI1 and OmKar2 (protein, UniProt Q11201 1-340, looked up)
CMP-N-acetylneuraminate-beta-g …: MVTLRKRTLKVLTFLVLFIFLTSFFLNYSHTMVATTWFPKQMVLELSENLKRLIKHRPCTCTHCIGQRKLSAWFDERFNQTMQPLLTAQNALLEDDTYRWWLRLQREKKPNNLNDTIKELFRVVPGNVDPMLEKRSVGCRRCAVVGNSGNLRESSYGPEIDSHDFVLRMNKAPTAGFEADVGTKTTHHLVYPESFRELGDNVSMILVPFKTIDLEWVVSAITTGTISHTYIPVPAKIRVKQDKILIYHPAFIKYVFDNWLQGHGRYPSTGILSVIFSMHVCDEVDLYGFGADSKGNWHHYWENNPSAGAFRKTGVHDADFESNVTATLASINKIRIFKGR
Q: Which Activity ([2]; listed as YT-5-1) does the source give for B4 here?
A: 1.29 mU/ml

Q: What about the Activity ([2]; listed as YT-5-2) of the same molecule?
A: 2.07 mU/ml

Q: What about the Activity ([2]; listed as YT-5-3) of the same molecule?
A: 1.86 mU/ml

Q: What about the Activity ([2]; listed as YT-5-4) of the same molecule?
A: 2.29 mU/ml

Q: And the Specific activity ([3]; listed as YT-5-1)?
A: 10.7 pU/AU

Q: And the Specific activity ([3]; listed as YT-5-2)?
A: 15.8 pU/AU

Q: What about the Specific activity ([3]; listed as YT-5-3) of the same molecule?
A: 12.3 pU/AU

Q: What about the Specific activity ([3]; listed as YT-5-4) of the same molecule?
A: 14.9 pU/AU
